Experimental data taken from US20050233350A1.

Tests used:
[1] = target: T1, recombinant HLA-A2.1 protein with β2-microglobulin (human); test: cell free competition assay: inhibition of binding of fluorescent [..] to recombinant HLA-A2.1 and β2-microglobulin, gel filtration, 4 experiments; settings: remark: other sources report otherwise
[2] = target: T1, recombinant HLA-A2.1 protein with …; test: cell free HLA-A2.1 peptide binding (competition) assay, HA-1^R against HA-1^H; settings: remark: other sources report otherwise

Row | Binder | IC50 [1] [nM] | fold lower binding affinity against the HA-1^H peptide [2] [fold]
1 | VLHDDLLEA [HA-1^H peptide … (minor histocompatibility antigen HA-1 nonapeptide, synthetic)] | 30 | 
2 | VLRDDLLEA [HA-1^R peptide … (allelic counterpart of HA-1, synthetic)] | 365 | 10
